Measured values taken from patent US20100036111.
Read-outs that look alike come from different tables or passages of the source.

Legend:
[1] = target: Klenow fragment exo- (KF exo-) (UniProt P00582); conditions: n=Ds (7-(2-thienyl)-imidazo[4,5-b]pyridine); dPa'TP insertion Vmax/KM; 10 mM MgCl2 pH 7.5 37C
[2] = target: Klenow fragment exo- (KF exo-) (UniProt P00582); conditions: n=Pa' (4-propynylpyrrole-2-carbaldehyde); dDsTP insertion Vmax/KM; 10 mM MgCl2 pH 7.5 37C
[3] = target: Klenow fragment exo- (KF exo-) (UniProt P00582); conditions: n=Pa (pyrrole-2-carbaldehyde); dDsTP insertion; Vmax/KM as printed (KM 26 uM and Vmax 28 imply 1.1e6); 10 mM MgCl2 pH 7.5 37C

Chain of Klenow fragment exo- (KF exo-) (P00582 324-928): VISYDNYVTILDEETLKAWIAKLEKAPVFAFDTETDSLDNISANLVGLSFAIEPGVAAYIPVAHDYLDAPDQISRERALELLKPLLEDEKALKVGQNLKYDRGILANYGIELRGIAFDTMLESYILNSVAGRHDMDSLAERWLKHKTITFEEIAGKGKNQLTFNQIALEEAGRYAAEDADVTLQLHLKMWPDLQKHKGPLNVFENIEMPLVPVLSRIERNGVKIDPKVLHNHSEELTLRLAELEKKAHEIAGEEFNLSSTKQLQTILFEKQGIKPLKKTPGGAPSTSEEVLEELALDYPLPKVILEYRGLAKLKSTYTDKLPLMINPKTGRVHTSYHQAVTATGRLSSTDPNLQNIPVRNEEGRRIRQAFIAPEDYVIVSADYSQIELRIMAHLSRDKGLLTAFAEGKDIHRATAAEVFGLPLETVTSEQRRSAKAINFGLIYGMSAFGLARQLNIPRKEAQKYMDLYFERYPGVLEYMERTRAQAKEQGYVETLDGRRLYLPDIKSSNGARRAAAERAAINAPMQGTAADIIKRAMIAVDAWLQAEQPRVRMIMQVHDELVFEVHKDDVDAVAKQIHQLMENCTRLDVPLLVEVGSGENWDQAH

How did the activity [1] turn out when “AGCTCTNTCTTCCTCCCTATAGTGAGTCGTATTAT / ACTCACTATAGGGAGGAAGA [temp35Ds-1/primer]” was run?
The activity was 260000 %/min/M.

With “TCGAGANAGAAGCTCCCTATAGTGAGTCGTATTAT / ACTCACTATAGGGAGCTTCT [temp35Pa'-2/primer]” as the sequence, how does the activity [2] read?
Its activity is 880000 %/min/M.

With “TCGAGANAGAAGCTCCCTATAGTGAGTCGTATTAT / ACTCACTATAGGGAGCTTCT [temp35Pa-2/primer]” as the sequence, how does the activity [3] read?
The activity was 11000 %/min/M.
